No end group written: not given here.
Assays:
Experiment in all cases: Kinase Profiling Assay
Assay type in all cases: biochemical
Settings in all cases: peptide 100 μM
[1] = target: BTK(h) (Homo sapiens, UniProt Q06187)
How it was run: (§1)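 Measured twice per kinase, activity in presence of MK2 inhibitory peptide was calculated against a 100% activity control after radiometric phosphorylation of a cationic substrate, anionic filter capture and scintillation counting; one of 266 human kinases profiled for specificity.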

[2] = target: CDK6/cyclinD3(h) (Homo sapiens, UniProt Q00534)
CDK6/cyclinD3(h), sequence (Q00534 whole entry): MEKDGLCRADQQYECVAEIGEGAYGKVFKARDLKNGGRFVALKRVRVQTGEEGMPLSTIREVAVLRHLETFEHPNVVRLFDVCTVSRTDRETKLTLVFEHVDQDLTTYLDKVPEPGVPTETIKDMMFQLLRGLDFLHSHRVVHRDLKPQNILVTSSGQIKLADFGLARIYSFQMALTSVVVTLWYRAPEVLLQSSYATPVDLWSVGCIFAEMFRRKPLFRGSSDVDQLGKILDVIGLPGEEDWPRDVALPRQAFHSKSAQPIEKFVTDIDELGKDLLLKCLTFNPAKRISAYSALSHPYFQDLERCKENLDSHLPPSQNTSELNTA
CDK6/cyclinD3(h), sequence (P30281 whole entry partner): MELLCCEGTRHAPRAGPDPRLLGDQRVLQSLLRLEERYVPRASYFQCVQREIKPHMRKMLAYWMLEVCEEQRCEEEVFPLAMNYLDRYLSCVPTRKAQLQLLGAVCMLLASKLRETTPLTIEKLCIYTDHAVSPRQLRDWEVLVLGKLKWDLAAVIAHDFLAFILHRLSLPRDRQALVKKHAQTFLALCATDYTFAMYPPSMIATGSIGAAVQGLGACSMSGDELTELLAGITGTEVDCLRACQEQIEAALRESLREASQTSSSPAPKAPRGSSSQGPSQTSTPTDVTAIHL
How it was run: as §1

[3] = target: FGFR2(h) (Homo sapiens, UniProt P21802)
How it was run: as §1

[4] = target: T1, IR(h), activated (Homo sapiens, UniProt P06213)
T1 construct: purchased Millipore
How it was run: as §1

[5] = target: T2, JAK3(h) (Homo sapiens, UniProt P52333)
T2 construct: purchased Millipore
T2 sequence (P52333 1-1124): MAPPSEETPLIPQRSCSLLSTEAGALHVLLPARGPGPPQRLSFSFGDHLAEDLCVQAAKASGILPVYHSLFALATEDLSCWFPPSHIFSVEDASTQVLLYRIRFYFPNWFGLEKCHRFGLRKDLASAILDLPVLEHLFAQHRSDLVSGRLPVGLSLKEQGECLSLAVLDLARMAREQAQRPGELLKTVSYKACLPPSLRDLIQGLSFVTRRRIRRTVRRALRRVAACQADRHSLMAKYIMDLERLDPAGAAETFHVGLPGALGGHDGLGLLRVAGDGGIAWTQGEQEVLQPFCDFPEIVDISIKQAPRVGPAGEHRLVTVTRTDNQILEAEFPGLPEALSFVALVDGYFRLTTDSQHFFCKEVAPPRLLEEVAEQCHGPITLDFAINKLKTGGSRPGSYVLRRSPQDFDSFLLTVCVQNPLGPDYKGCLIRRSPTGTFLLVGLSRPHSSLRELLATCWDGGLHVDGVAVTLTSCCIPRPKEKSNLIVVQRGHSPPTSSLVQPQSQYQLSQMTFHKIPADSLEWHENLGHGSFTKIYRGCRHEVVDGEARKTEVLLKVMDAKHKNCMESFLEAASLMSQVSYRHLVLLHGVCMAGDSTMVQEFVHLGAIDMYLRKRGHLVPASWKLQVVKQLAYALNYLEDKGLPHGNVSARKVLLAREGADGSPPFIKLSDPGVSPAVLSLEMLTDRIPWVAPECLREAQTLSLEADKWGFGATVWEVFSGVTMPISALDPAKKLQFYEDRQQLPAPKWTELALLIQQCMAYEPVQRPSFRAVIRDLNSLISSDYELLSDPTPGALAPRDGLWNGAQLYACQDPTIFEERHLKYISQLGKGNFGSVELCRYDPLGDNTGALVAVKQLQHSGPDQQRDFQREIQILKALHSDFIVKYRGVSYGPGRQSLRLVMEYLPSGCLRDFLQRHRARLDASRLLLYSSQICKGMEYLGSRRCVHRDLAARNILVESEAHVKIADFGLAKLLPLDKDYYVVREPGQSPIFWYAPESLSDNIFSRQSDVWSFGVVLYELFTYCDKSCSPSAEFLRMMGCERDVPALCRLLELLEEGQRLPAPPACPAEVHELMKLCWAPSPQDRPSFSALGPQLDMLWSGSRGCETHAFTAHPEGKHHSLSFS
How it was run: as §1

[6] = target: T3, MRCKβ(h) (Homo sapiens, UniProt Q9Y5S2)
T3 construct: purchased Millipore
T3 sequence (Q9Y5S2 whole entry): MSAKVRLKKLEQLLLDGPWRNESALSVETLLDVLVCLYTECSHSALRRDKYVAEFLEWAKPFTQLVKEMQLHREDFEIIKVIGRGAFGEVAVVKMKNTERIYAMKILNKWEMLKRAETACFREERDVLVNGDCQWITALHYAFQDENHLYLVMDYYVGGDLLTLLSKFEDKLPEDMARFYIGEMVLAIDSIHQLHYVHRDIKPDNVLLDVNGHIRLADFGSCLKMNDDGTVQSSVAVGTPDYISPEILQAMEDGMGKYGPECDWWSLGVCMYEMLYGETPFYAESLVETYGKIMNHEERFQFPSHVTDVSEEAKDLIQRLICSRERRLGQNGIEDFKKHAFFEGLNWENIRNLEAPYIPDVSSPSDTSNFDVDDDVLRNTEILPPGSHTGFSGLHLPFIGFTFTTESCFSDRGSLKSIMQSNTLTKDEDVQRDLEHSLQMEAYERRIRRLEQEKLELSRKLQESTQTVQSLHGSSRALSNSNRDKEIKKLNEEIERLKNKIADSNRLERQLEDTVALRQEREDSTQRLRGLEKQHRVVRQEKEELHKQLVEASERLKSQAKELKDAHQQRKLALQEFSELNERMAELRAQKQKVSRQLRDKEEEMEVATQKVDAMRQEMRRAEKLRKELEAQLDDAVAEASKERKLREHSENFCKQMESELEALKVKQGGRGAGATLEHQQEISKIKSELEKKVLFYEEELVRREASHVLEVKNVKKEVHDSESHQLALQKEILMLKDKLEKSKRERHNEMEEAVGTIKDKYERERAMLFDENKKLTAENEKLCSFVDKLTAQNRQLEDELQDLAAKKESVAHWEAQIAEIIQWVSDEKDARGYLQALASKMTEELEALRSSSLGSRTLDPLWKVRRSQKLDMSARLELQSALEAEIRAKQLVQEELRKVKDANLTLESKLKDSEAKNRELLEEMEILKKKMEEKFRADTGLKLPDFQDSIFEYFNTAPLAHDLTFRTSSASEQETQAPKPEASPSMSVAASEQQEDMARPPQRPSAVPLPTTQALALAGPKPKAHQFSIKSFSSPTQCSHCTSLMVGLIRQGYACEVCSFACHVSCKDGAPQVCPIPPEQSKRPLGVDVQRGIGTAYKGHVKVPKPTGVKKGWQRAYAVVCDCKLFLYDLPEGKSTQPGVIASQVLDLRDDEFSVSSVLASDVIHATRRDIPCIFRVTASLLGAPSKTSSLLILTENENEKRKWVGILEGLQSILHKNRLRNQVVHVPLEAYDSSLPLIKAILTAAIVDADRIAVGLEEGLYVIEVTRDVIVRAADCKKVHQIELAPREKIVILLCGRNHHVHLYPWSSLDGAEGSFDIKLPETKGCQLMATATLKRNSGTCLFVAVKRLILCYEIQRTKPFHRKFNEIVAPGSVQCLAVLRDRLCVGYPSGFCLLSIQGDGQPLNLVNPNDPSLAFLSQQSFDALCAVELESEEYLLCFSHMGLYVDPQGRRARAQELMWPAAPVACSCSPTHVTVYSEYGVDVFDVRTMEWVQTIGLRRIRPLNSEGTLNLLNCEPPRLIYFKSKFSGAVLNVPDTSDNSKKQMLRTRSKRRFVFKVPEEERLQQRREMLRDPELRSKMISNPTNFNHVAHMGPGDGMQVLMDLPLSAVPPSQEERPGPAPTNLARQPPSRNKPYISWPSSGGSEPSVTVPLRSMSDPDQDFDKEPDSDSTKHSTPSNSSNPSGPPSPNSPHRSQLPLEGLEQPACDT
How it was run: as §1

[7] = target: T4, Met(h) (Homo sapiens, UniProt P08581)
T4 construct: purchased Millipore
T4 sequence (P08581 25-1390): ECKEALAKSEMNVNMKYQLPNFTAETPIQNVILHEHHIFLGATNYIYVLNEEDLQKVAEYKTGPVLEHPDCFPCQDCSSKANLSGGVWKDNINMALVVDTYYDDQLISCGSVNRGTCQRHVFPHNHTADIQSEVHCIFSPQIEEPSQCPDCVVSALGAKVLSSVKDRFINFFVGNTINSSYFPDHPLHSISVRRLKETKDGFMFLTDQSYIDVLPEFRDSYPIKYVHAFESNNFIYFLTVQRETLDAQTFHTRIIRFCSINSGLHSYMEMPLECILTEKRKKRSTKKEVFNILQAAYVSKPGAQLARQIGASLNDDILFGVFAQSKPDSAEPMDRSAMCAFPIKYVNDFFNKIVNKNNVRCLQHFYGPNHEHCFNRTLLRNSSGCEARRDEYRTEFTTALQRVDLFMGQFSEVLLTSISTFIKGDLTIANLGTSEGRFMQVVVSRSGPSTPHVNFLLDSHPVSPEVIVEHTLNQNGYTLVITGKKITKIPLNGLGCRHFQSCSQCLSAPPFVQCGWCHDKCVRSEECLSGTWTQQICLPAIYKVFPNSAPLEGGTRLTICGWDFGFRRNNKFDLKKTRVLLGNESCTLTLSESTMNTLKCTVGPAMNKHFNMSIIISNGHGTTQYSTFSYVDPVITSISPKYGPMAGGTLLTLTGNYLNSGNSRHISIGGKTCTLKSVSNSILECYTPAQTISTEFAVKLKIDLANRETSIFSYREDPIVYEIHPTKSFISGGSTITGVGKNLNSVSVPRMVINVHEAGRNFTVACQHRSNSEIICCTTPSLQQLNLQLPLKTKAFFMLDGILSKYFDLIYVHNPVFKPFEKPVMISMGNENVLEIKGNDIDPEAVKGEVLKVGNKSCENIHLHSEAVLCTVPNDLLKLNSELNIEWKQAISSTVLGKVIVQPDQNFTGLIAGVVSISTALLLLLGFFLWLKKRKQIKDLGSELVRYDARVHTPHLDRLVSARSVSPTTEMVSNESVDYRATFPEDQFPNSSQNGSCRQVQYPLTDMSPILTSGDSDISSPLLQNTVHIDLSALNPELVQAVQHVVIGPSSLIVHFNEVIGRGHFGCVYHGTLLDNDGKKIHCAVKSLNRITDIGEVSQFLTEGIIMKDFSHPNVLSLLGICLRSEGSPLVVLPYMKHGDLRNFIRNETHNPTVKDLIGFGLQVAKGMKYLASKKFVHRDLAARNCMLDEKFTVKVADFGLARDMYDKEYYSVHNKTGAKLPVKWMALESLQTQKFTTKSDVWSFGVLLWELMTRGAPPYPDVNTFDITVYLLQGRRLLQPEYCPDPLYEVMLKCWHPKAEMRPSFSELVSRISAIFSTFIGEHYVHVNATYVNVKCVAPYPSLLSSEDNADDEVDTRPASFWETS
How it was run: as §1

[8] = target: T5, TAO3(h) (Homo sapiens, UniProt Q9H2K8)
T5 construct: purchased Millipore
T5 sequence (Q9H2K8 1-898): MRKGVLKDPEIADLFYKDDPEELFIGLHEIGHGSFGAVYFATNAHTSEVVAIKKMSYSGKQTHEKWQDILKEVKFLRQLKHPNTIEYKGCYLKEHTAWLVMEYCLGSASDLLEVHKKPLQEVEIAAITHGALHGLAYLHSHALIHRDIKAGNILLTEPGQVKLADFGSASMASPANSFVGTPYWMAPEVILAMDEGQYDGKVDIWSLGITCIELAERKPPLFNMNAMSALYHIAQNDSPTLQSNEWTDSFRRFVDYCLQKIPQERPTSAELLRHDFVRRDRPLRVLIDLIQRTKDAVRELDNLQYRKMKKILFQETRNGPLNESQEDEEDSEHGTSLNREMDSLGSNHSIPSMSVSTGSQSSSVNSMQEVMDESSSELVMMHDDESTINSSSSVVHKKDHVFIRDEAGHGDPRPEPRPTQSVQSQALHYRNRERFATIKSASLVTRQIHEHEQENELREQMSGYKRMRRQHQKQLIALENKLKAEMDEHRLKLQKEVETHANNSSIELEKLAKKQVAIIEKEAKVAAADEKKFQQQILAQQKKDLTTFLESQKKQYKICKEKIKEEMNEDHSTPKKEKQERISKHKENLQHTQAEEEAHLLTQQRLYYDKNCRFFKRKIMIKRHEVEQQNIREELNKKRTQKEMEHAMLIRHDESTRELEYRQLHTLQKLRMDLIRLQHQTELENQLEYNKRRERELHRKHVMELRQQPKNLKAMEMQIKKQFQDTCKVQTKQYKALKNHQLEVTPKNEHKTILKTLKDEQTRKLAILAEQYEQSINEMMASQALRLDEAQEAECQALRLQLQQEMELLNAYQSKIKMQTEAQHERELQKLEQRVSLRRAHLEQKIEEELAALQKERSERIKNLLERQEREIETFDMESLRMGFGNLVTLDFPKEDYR
How it was run: as §1

[9] = target: ZIPK(h) (Homo sapiens, UniProt O43293)
ZIPK(h), sequence (O43293 whole entry): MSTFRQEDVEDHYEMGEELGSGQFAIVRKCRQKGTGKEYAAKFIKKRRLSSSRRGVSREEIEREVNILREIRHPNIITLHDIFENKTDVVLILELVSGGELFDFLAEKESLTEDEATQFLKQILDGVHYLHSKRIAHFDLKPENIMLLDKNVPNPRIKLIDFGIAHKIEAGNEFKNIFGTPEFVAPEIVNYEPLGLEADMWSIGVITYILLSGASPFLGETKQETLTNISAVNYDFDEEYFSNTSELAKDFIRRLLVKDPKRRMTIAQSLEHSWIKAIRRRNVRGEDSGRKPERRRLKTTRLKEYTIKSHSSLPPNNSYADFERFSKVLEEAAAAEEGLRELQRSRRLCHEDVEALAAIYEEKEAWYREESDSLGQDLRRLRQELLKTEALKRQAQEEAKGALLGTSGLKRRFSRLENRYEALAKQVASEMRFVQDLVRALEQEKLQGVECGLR
How it was run: as §1

[10] = target: cKit(D816V)(h) (Homo sapiens, UniProt P10721, D816V)
How it was run: as §1

BTK(h), sequence (Q06187 whole entry): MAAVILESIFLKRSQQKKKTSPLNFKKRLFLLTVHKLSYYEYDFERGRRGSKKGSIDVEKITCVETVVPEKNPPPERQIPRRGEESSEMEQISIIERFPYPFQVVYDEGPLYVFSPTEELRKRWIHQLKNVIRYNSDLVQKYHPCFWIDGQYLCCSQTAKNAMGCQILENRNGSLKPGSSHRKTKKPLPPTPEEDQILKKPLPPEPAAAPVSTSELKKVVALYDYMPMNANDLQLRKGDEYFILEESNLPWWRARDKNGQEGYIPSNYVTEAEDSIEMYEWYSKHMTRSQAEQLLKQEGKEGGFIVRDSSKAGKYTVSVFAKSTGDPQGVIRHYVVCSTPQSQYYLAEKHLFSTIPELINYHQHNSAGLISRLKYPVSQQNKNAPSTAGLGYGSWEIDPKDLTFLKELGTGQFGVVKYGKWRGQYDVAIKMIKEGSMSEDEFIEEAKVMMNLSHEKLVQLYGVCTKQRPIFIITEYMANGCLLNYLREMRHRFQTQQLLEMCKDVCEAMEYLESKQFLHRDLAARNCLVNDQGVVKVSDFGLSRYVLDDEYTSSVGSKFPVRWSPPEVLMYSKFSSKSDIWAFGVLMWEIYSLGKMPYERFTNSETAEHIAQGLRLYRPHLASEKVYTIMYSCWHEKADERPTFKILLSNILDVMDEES

Sequence	% activity [1] [%]	% activity [2] [%]	% activity [3] [%]	% activity [4] [%]	% activity [5] [%]	% activity [6] [%]	% activity [7] [%]	% activity [8] [%]	% activity [9] [%]	% activity [10] [%]
KAFAKLAARLYRKALARQLGVAA [MMI-0400]	94	85	18	59	122	71	62	67	13	35
FAKLAARLYRKALARQLGVAA [MMI-0300]	–	86	14	79	–	83	65	77	28	60
YARAAARQARAKALARQLGVAA [MMI-0100]	–	–	–	127	150	–	–	45	–	–
HRRIKAWLKKIKALARQLGVAA (Mammal) [MMI-0500]	18	23	12	90	95	-10	27	12	1	30
YARAAARQARAKALNRQLGVA (Mammal) [MMI-0200]	100	100	73	–	–	–	71	–	67	118

Source: US20150258192A1, “COMPOSITIONS AND METHODS FOR PREVENTING OR TREATING CHRONIC LUNG ALLOGRAFT DYSFUNCTION (CLAD) AND IDIOPATHIC PULMONARY FIBROSIS (IPF)” (priority 2014, published 2015)
